# B1: PGT-125 (antibody, V domains shown)
# VH: QSQLQESGPRLVEASETLSLTCNVSGESTGACTYFWGWVRQAPGKGLEWIGSLSHCQSFWGSGWTFHNPSLKSRLTISLDTPKNQVFLKLTSLTAADTATYYCARFDGEVLVYNHWPKPAWVDLWGRGIPVTVSS
# VL: QSALTQPPSASGSPGQSITISCNGTATNFVSWYQQFPDKAPKLIIFGVDKRPPGVPDRFSGSRSGTTASLTVSRLQTDDEAVYYCGSLVGNWDVIFGGGTTLTVL
# B2: PGT-123 (antibody, V domains shown)
# VH: QLHLQESGPGLVKPPETLSLTCSVSGASINDAYWSWIRQSPGKRPEWVGYVHHSGDTNYNPSLKRRVTFSLDTAKNEVSLKLVDLTAADSATYFCARALHGKRIYGIVALGELFTYFYMDVWGKGTAVTVSS
# VL: SSMSVSPGETAKISCGKESIGSRAVQWYQQKPGQPPSLIIYNNQDRPAGVPERFSASPDFRPGTTATLTITNVDAEDEADYYCHIYDARGGTNWVFDRGTTLTVL
# Experiments:
# [1] = target: Env of the clade A HIV-1 pseudoviruses of the cross-clade 162-pseudovirus panel (n = 26); assay: cell-based or functional assay
# [2] = target: Env of the clade C HIV-1 pseudoviruses of the cross-clade 162-pseudovirus panel (n = 27); assay: cell-based or functional assay
# [3] = target: Env of the clade D HIV-1 pseudoviruses of the cross-clade 162-pseudovirus panel (n = 25); assay: cell-based or functional assay
# [4] = target: Env of the clade G HIV-1 pseudoviruses of the cross-clade 162-pseudovirus panel (n = 15); assay: cell-based or functional assay
# [5] = target: HIV-1 JR-CSF Env D325A (HIV-1 isolate JR-CSF) (UniProt P20871); assay: cell-based or functional assay
# [6] = target: HIV-1 JR-CSF Env D417A (HIV-1 (isolate JR-CSF)) (UniProt P20871); assay: cell-based or functional assay
# [7] = target: HIV-1 JR-CSF Env E321aA (HIV-1 isolate JR-CSF) (UniProt P20871); assay: cell-based or functional assay
# [8] = target: HIV-1 JR-CSF Env F317A (HIV-1 isolate JR-CSF) (UniProt P20871); assay: cell-based or functional assay
# [9] = target: HIV-1 JR-CSF Env I309A (HIV-1 JR-CSF) (UniProt P20871); assay: cell-based or functional assay
# [10] = target: HIV-1 JR-CSF Env I414A (HIV-1 (isolate JR-CSF)) (UniProt P20871); assay: cell-based or functional assay
# [11] = target: HIV-1 JR-CSF Env I415A (HIV-1 (isolate JR-CSF)) (UniProt P20871); assay: cell-based or functional assay
# [12] = target: HIV-1 JR-CSF Env I424A (HIV-1 (isolate JR-CSF)) (UniProt P20871); assay: cell-based or functional assay
# [13] = target: HIV-1 JR-CSF Env K305A (HIV-1 JR-CSF) (UniProt P20871); assay: cell-based or functional assay
# [14] = target: HIV-1 JR-CSF Env K343A (HIV-1 isolate JR-CSF) (UniProt P20871); assay: cell-based or functional assay
# [15] = target: HIV-1 JR-CSF Env N241A (HIV-1 JR-CSF) (UniProt P20871); assay: cell-based or functional assay
# [16] = target: HIV-1 JR-CSF Env N276A (HIV-1 JR-CSF) (UniProt P20871); assay: cell-based or functional assay
# [17] = target: HIV-1 JR-CSF Env N295A (HIV-1 JR-CSF) (UniProt P20871); assay: cell-based or functional assay
# [18] = target: HIV-1 JR-CSF Env N302A (HIV-1 JR-CSF) (UniProt P20871); assay: cell-based or functional assay
# [19] = target: HIV-1 JR-CSF Env N332A (HIV-1 isolate JR-CSF) (UniProt P20871); assay: cell-based or functional assay
# [20] = target: HIV-1 JR-CSF Env N339A (HIV-1 isolate JR-CSF) (UniProt P20871); assay: cell-based or functional assay
# [21] = target: HIV-1 JR-CSF Env N386A (HIV-1 isolate JR-CSF) (UniProt P20871); assay: cell-based or functional assay
# [22] = target: HIV-1 JR-CSF Env N411A (HIV-1 (isolate JR-CSF)) (UniProt P20871); assay: cell-based or functional assay
# [23] = target: HIV-1 JR-CSF Env P299A (HIV-1 JR-CSF) (UniProt P20871); assay: cell-based or functional assay
# [24] = target: HIV-1 JR-CSF Env P313A (HIV-1 JR-CSF) (UniProt P20871); assay: cell-based or functional assay
# [25] = target: HIV-1 JR-CSF Env Q337A (HIV-1 isolate JR-CSF) (UniProt P20871); assay: cell-based or functional assay
# [26] = target: HIV-1 JR-CSF Env R315A (HIV-1 isolate JR-CSF) (UniProt P20871); assay: cell-based or functional assay
# [27] = target: HIV-1 JR-CSF Env R327A (HIV-1 isolate JR-CSF) (UniProt P20871); assay: cell-based or functional assay
# [28] = target: HIV-1 JR-CSF Env R419A (HIV-1 (isolate JR-CSF)) (UniProt P20871); assay: cell-based or functional assay
# [29] = target: HIV-1 JR-CSF Env S334A (HIV-1 isolate JR-CSF) (UniProt P20871); assay: cell-based or functional assay
# [30] = target: HIV-1 JR-CSF Env S387A (HIV-1 (isolate JR-CSF)) (UniProt P20871); assay: cell-based or functional assay
# [31] = target: HIV-1 JR-CSF Env T202A (HIV-1 JR-CSF) (UniProt P20871); assay: cell-based or functional assay
# [32] = target: HIV-1 JR-CSF Env T297A (HIV-1 JR-CSF) (UniProt P20871); assay: cell-based or functional assay
# [33] = target: HIV-1 JR-CSF Env T303A (HIV-1 JR-CSF) (UniProt P20871); assay: cell-based or functional assay
# [34] = target: HIV-1 JR-CSF Env T341A (HIV-1 isolate JR-CSF) (UniProt P20871); assay: cell-based or functional assay
# [35] = target: HIV-1 JR-CSF Env T388A (HIV-1 (isolate JR-CSF)) (UniProt P20871); assay: cell-based or functional assay
# [36] = target: HIV-1 JR-CSF Env T394A (HIV-1 (isolate JR-CSF)) (UniProt P20871); assay: cell-based or functional assay
# [37] = target: HIV-1 JR-CSF Env V292A (HIV-1 JR-CSF) (UniProt P20871); assay: cell-based or functional assay
# [38] = target: JR-FL gp120 ΔV1/ΔV2 (HIV-1 (isolate JR-FL)); assay: ELISA on coated gp120; EC50 by nonlinear regression
# [39] = target: WT JR-FL gp120 (HIV-1 (isolate JR-FL)); assay: as above
binder,measurement,setting,value
B1,Median IC50 against viruses neutralized with an IC50 <50 µg/ml,[1],0.01 µg/mL
same,Median IC50 against viruses neutralized with an IC50 <50 µg/ml,[2],1.83 µg/mL
same,Median IC50 against viruses neutralized with an IC50 <50 µg/ml,[3],0.09 µg/mL
same,Median IC50 against viruses neutralized with an IC50 <50 µg/ml,[4],0.02 µg/mL
same,Fold IC50 increase relative to wild-type,[5],0.4 fold
same,Fold IC50 increase relative to wild-type,[6],0.5 fold
same,Fold IC50 increase relative to wild-type,[7],1 fold
same,Fold IC50 increase relative to wild-type,[8],1.8 fold
same,Fold IC50 increase relative to wild-type,[9],1 fold
same,Fold IC50 increase relative to wild-type,[10],0.3 fold
same,Fold IC50 increase relative to wild-type,[11],0.3 fold
same,Fold IC50 increase relative to wild-type,[12],0.7 fold
same,Fold IC50 increase relative to wild-type,[13],1.9 fold
same,Fold IC50 increase relative to wild-type,[14],0.7 fold
same,Fold IC50 increase relative to wild-type,[15],0.5 fold
same,Fold IC50 increase relative to wild-type,[16],0.9 fold
same,Fold IC50 increase relative to wild-type,[17],0.8 fold
same,Fold IC50 increase relative to wild-type,[18],0.7 fold
same,Fold IC50 increase relative to wild-type,[19],2 fold
same,Fold IC50 increase relative to wild-type,[20],0.9 fold
same,Fold IC50 increase relative to wild-type,[21],0.8 fold
same,Fold IC50 increase relative to wild-type,[22],0.5 fold
same,Fold IC50 increase relative to wild-type,[23],0.2 fold
same,Fold IC50 increase relative to wild-type,[24],0.3 fold
same,Fold IC50 increase relative to wild-type,[25],0.8 fold
same,Fold IC50 increase relative to wild-type,[26],0.9 fold
same,Fold IC50 increase relative to wild-type,[27],2.1 fold
same,Fold IC50 increase relative to wild-type,[28],1 fold
same,Fold IC50 increase relative to wild-type,[29],0.8 fold
same,Fold IC50 increase relative to wild-type,[30],0.6 fold
same,Fold IC50 increase relative to wild-type,[31],0.8 fold
same,Fold IC50 increase relative to wild-type,[32],0.9 fold
same,Fold IC50 increase relative to wild-type,[33],> 250 fold
same,Fold IC50 increase relative to wild-type,[34],1.1 fold
same,Fold IC50 increase relative to wild-type,[35],0.6 fold
same,Fold IC50 increase relative to wild-type,[36],0.6 fold
same,Fold IC50 increase relative to wild-type,[37],3.3 fold
same,EC50,[38],0.6 µg/mL
same,EC50,[39],0.2 µg/mL
B2,Median IC50 against viruses neutralized with an IC50 <50 µg/ml,[1],0.02 µg/mL
same,Median IC50 against viruses neutralized with an IC50 <50 µg/ml,[2],0.01 µg/mL
same,Median IC50 against viruses neutralized with an IC50 <50 µg/ml,[3],0.02 µg/mL
same,Median IC50 against viruses neutralized with an IC50 <50 µg/ml,[4],0.04 µg/mL
same,Fold IC50 increase relative to wild-type,[5],64 fold
same,Fold IC50 increase relative to wild-type,[6],0.7 fold
same,Fold IC50 increase relative to wild-type,[7],0.6 fold
same,Fold IC50 increase relative to wild-type,[8],3.1 fold
same,Fold IC50 increase relative to wild-type,[9],1.6 fold
same,Fold IC50 increase relative to wild-type,[10],0.3 fold
same,Fold IC50 increase relative to wild-type,[11],0.4 fold
same,Fold IC50 increase relative to wild-type,[12],0.5 fold
same,Fold IC50 increase relative to wild-type,[13],1.9 fold
same,Fold IC50 increase relative to wild-type,[14],0.3 fold
same,Fold IC50 increase relative to wild-type,[15],0.8 fold
same,Fold IC50 increase relative to wild-type,[16],1.1 fold
same,Fold IC50 increase relative to wild-type,[17],1.2 fold
same,Fold IC50 increase relative to wild-type,[18],1.3 fold
same,Fold IC50 increase relative to wild-type,[19],> 200 fold
same,Fold IC50 increase relative to wild-type,[20],0.8 fold
same,Fold IC50 increase relative to wild-type,[21],1.4 fold
same,Fold IC50 increase relative to wild-type,[22],0.5 fold
same,Fold IC50 increase relative to wild-type,[23],0.7 fold
same,Fold IC50 increase relative to wild-type,[24],0.2 fold
same,Fold IC50 increase relative to wild-type,[25],0.5 fold
same,Fold IC50 increase relative to wild-type,[26],0.7 fold
same,Fold IC50 increase relative to wild-type,[27],1.7 fold
same,Fold IC50 increase relative to wild-type,[28],0.7 fold
same,Fold IC50 increase relative to wild-type,[29],> 50 fold
same,Fold IC50 increase relative to wild-type,[30],0.9 fold
same,Fold IC50 increase relative to wild-type,[31],1.2 fold
same,Fold IC50 increase relative to wild-type,[32],0.3 fold
same,Fold IC50 increase relative to wild-type,[33],1.1 fold
same,Fold IC50 increase relative to wild-type,[34],0.3 fold
same,Fold IC50 increase relative to wild-type,[35],0.2 fold
same,Fold IC50 increase relative to wild-type,[36],0.4 fold
same,Fold IC50 increase relative to wild-type,[37],1.7 fold
same,EC50,[38],0.3 µg/mL
same,EC50,[39],0.2 µg/mL

# — patent US20200024330A1
